Data as given in article PMC11195156 (bioRxiv, 2025).

T1: Escherichia coli sulfite reductase hemoprotein (Escherichia coli K-12, UniProt P17846 1-570)
T1 sequence: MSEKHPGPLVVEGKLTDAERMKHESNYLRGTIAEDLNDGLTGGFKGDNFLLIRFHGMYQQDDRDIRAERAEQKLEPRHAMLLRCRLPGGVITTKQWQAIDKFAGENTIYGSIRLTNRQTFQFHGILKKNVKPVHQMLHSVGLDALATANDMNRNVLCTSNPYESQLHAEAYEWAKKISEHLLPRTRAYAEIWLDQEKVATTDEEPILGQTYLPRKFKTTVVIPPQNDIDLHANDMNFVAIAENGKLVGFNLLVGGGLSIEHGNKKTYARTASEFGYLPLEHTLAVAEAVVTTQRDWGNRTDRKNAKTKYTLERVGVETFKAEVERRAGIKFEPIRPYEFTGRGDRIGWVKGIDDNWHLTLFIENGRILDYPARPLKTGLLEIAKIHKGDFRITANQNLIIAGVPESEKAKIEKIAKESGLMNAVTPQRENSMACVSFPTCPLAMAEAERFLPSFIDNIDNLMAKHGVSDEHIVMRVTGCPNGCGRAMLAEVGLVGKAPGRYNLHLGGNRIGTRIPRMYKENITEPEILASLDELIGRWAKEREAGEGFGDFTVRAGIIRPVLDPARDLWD


Biological target: T1, Escherichia coli sulfite reductase …
Test: cryo-EM structure

Row | binding result | Binder
1 | binds | SiRFP-60Δ: sulfite reductase flavoprotein amino acids 52-599/Δ212-217 (Δ-AAPSQS) (domain or fragment, Escherichia coli K-12, UniProt P38038 52-599, looked up) AATPAPAAEMPGITIISASQTGNARRVAEALRDDLLAAKLNVKLVNAGDYKFKQIASEKLLIVVTSTQGEGEPPEEAVALHKFLFSKKAPKLENTAFAVFSLGDSSYEFFCQSGKDFDSKLAELGGERLLDRVDADVEYQAAASEWRARVVDALKSRAPVVATGAVNEIHTSPYSKDAPLVASLSVNQKITGRNSEKDVRHIEIDLGDSGMRYQPGDALGVWYQNDPALVKELVELLWLKGDEPVTVEGKTLPLNEALQWHFELTVNTANIVENYATLTRSETLLPLVGDKAKLQHYAATTPIVDMVRFSPAQLDAEALINLLRPLTPRLYSIASSQAEVENEVHVTVGVVRYDVEGRARAGGASSFLADRVEEEGEVRVFIEHNDNFRLPANPETPVIMIGPGTGIAPFRAFMQQRAADEAPGKNWLFFGNPHFTEDFLYQVEWQRYVKDGVLTRIDLAWSRDQKEKVYVQDKLREQGAELWRWINDGAHIYVCGDANRMAKDVEQALLEVIAEFGGMDTEAADEFLSELRVERRYQRDVY
2 | binds | SiRFP-43: sulfite reductase flavoprotein amino acids 237-599 (domain or fragment, Escherichia coli K-12, UniProt P38038 237-599, looked up) LVASLSVNQKITGRNSEKDVRHIEIDLGDSGMRYQPGDALGVWYQNDPALVKELVELLWLKGDEPVTVEGKTLPLNEALQWHFELTVNTANIVENYATLTRSETLLPLVGDKAKLQHYAATTPIVDMVRFSPAQLDAEALINLLRPLTPRLYSIASSQAEVENEVHVTVGVVRYDVEGRARAGGASSFLADRVEEEGEVRVFIEHNDNFRLPANPETPVIMIGPGTGIAPFRAFMQQRAADEAPGKNWLFFGNPHFTEDFLYQVEWQRYVKDGVLTRIDLAWSRDQKEKVYVQDKLREQGAELWRWINDGAHIYVCGDANRMAKDVEQALLEVIAEFGGMDTEAADEFLSELRVERRYQRDVY
3 | binds | SiRFP-60X: sulfite reductase flavoprotein amino acids 52-599 (C162T/C552S/E121C/N556C) (domain or fragment, Escherichia coli K-12, UniProt P38038 52-599, looked up) AATPAPAAEMPGITIISASQTGNARRVAEALRDDLLAAKLNVKLVNAGDYKFKQIASEKLLIVVTSTQGCGEPPEEAVALHKFLFSKKAPKLENTAFAVFSLGDSSYEFFTQSGKDFDSKLAELGGERLLDRVDADVEYQAAASEWRARVVDALKSRAPVAAPSQSVATGAVNEIHTSPYSKDAPLVASLSVNQKITGRNSEKDVRHIEIDLGDSGMRYQPGDALGVWYQNDPALVKELVELLWLKGDEPVTVEGKTLPLNEALQWHFELTVNTANIVENYATLTRSETLLPLVGDKAKLQHYAATTPIVDMVRFSPAQLDAEALINLLRPLTPRLYSIASSQAEVENEVHVTVGVVRYDVEGRARAGGASSFLADRVEEEGEVRVFIEHNDNFRLPANPETPVIMIGPGTGIAPFRAFMQQRAADEAPGKNWLFFGNPHFTEDFLYQVEWQRYVKDGVLTRIDLAWSRDQKEKVYVQDKLREQGAELWRWINDGAHIYVSGDACRMAKDVEQALLEVIAEFGGMDTEAADEFLSELRVERRYQRDVY
